Assay results: US12661385B2, “Modulation of mTORCI activity and autophagy via CIB2-RHEB interaction” (University of Maryland, Baltimore, priority 2018, dated 2026)

Legend:
RPE-J cells [1] = test: LC3-II induction / LC3 flux immunoblots in transfected RPE-J cells; format: cell-based, rat; conditions: RPE-J cells overexpressing CIB2 vs GFP, in the presence of bafilomycin A1, 24 hrs
Experimental: FIG. 13. Loss of CIB2, specifically in the RPE, leads to LC3 flux deficits, while CIB2 overexpression, in vitro, restores LC3 flux._a-d, RPE whole mounts treated with DMSO or 50 μM bafilomycin A1 (Baf-A1) overnight show reduced levels of LC3-II, quantified in panels b and d, in Cib2 deficient mice as compared to WT controls, indicating autophagy deficits. Ratio for WT or RPE-Cre+; Cib2^+/+ was set to 1. e. Representative immunoblots for LC3-II induction in transiently transfected (GFP or CIB2-IRES-GFP) RPE-J cells treated with DMSO, 50 μM bafilomycin-A1 (Baf-A1), or 100 nM rapamycin (Rapa) for 24 hrs. f. Quantification of LC3 flux (ratio of LC3-II/actin in Baf-A1 to DMSO treated samples) or LC3B-II/actin ratio up on rapamycin treatment for immunoblots shown in (e). […]
(§1) Complementary to the findings of Cib2 mutant mice, over-expressing CIB2 in RPE-J cells increased LAMP-1 and ATG5-ATG12 complex proteins levels (FIG. 12c-d). […] To test this idea, we assessed LC3-II flux. LC3-I is a cytosolic protein which when lipidated with a phosphatidylethanolamine adduct (LC3-II form) localizes to the growing auto/phagosome membrane, and thus can be used as a reliable readout for the dynamic autophagic process (Valapala et al., Autophagy 10, 480-496 (2014); Kim et al., Noncanonical Autophagy Promotes the Visual Cycle. Cell 154, 365-376 (2013); Klionsky et al., Autophagy 12, 1-222 (2016)). […]

RPE-J cells [2] = test: In vitro pulse-chase phagocytosis assay with opsin immunoblotting; format: cell-based, rat; conditions: CIB2 overexpression vs control, chase 6 h
Description: FIG. 12. CIB2 mutant mice have less autophagy/lysosomal proteins, and overexpression of CIB2. in vitro, is sufficient to boost levels of autophagy/lysosomal proteins and clearance of opsin. a. […] Pro-cathepsin D levels were quantified from non-saturated exposures. c. Representative immunoblots for indicated autophagy/lysosomal proteins from RPE-J cells transiently transfected with GFP or CIB2-IRES-GFP. Endogenous CIB2 is observable in long exposure immunoblot, while transiently overexpressed CIB2 is readily observable in short exposure immunoblot. d. Quantification for immunoblots shown in (c). n=5 (LAMP-1) or 4 (ATG5-ATG12) independent transfection experiments. e, Schematic of the pulse-chase phagocytosis assay (left panel)—also see Examples below. […]
as §1

B1: CIB2: calcium and integrin binding protein 2, over-expressed in cells from plasmid constructs; SEQ ID NO:1 (human), SEQ ID NO:2 (mouse) (protein)
chain: MGNKQTIFTEEQLDNYQDCTFFNKKDILKLHARFYELAPNLVPMDYRKSPIVHVPMSLIIQMPELRENPFKERIVEAFSEDGEGNLTFNDFVDMFSVLCESAPRELKANYAFKIYDFNTDNFICKEDLEMTLARLTKSELEEDEVVLVCDKVIEEADLDGDGKLGFADFEDMIAKAPDFLSTFHIRI
modifications: left off: large carriers
Relative LC3 flux (ratio of LC3-II/actin in Baf-A1 to DMSO treated samples) (RPE-J cells [1]): markedly increased
Opsin 6 hr later (digestion phase) (RPE-J cells [2]): less opsin
